# Measurements: patent US10300107B2, “Compositions and methods for CaMKII inhibitors and uses thereof” (THE REGENTS OF THE UNIVERSITY OF COLORADO, priority 2007, dated 2019)
# B1: CaM-KIIN: natural CaMKII inhibitor protein expressed in brain (protein, UniProt Q7Z7J9 1-78, looked up)
# Calcium/calmodulin-dependent …: MSEVLPYGDEKLSPYGDGGDVGQIFSCRLQDTNNFFGAGQNKRPPKLGQIGRSKRVVIEDDRIDDVLKNMTDKAPPGV
# Assays:
# [1] = molecular target: T1, CaM dissociation from CaMKII (Homo sapiens, UniProt Q9UQM7); experiment: TA-CaM dissociation from CaMKII; format: binding; conditions: 5 μM; 150 nM CaMKII, 30 nM TA-CaM
# T1 construct: made in house; host or cells: baculovirus/Sf9 cells (CaMKII)
# Method: TA-CaM dissociation was assessed by increased TA-CaM (30 nM) fluorescence after dissociation from CaMKII or its CaM-binding domain (CBD) (150 nM) during a chase with unlabeled CaM (60 μM). Buffer contained 50 mM Hepes pH 7.4, 150 mM KCl, 2 mM MgCl2, 2 mM MgADP, 2 mM CaCl2, and 0.1 mg/ml BSA. Fluorescence was measured in a time scan (1 sec samples) at 365 nm excitation and 415 nm emission wavelength on a spectro-fluorometer (Fluorolog3; Horiba Jobin Yvon) and was corrected for photobleach (FIG. 16).
# [2] = tested on: CaMKII T-site mutants W237R and 1205K; experiment: Kinase assay with GFP-CaMKIIα T-site mutants; format: biochemical; conditions: substrate syntide2
# Description: In another example, FIG. 3. […] FIG. 3A represents a model of CaMKII kinase domain (Rosenberg et al., 2005) with the substrate binding S-site (indicated), the T286-region binding T-site (indicated), and the regulatory region (shown as ribbon). The arrow indicates the proposed orientation of CN21a binding to the T-site, when the regulatory region is displaced after activation. […] Results are normalized to maximal kinase activity without inhibitor. Error bars show s.e.m. […] Bound CaMKII was eluted and detected by Western blot.
# CaMKII activity assays. Standard CaMKII assays were done for 1 min at 30° C. previously described, with 20 nM CaMKII (subunit, not holoenzyme concentration), 50 mM PIPES pH 7.2, 0.1 mg/ml BSA, 10 mM MgCl2, 100 μM [γ-^32P] ATP (˜1 Ci/mmol), 1 mM CaCl2, 1-2 μM CaM, and 30-60 μM AC2 peptide (or syntide2). The reactions were spotted onto Whatman P81 phosphocellulose paper rectangles (˜2×2.5 cm). To remove free radioactivity, the paper rectangles were rinsed and washed for 30 min under agitation in 0.5% phosphoric acid or water. […] Radioactivity of the bound peptides was quantified in a Beckman 6000TA scintillation counter by the Cherenkov method. Any changes of the standard protocol were done as indicated. For assays of the GFP-CaMKIIα mutants, kinase amounts were normalized by GFP fluorescence in the extract, and total protein was adjusted with Cos-7 extracts.
molecule,measurement,setting,value
B1,CaM dissociation from CaMKII,[1],slowed down CaM dissociation from CaMKII
same,activity of CaMKII T-site mutants W237R and 1205K compared to GFP-CaMKIIα wild type,[2],significantly less affected
